Earlier results, collected in publication PMC4411102 (PLoS ONE, 2015).

Tested on: HIV
Source text: HIV-1 infection can be targeted at various stages, for example, viral entry, viral replication or assembly of viral components. HIV entry into the host cells is facilitated by binding of viral envelope glycoprotein (gp120) to host CD4 receptor [3, 4]. CD4-gp120 interaction initiates a cascade of events that stimulates gp41 to promote viral and host membrane fusion. Inhibition of gp120-CD4 interaction or virus-host cell fusion thus appears to be an attractive strategy to prevent HIV-1 infection. Towards this, significant advances have been made. […] Moreover, some of the AMPs cause adverse effects on vaginal commensals like lactobacilli which are required to maintain low pH in vaginal mucosa.

B1: human defensin-5: antimicrobial peptide (peptide, UniProt Q01523 20-94, looked up)
Defensin alpha 5: ESLQERADEATTQKQSGEDNQDLAISFAGNGLSALRTSGSQARATCYCRTGRCATRESLSGVCEISGRLYRLCCR
modifications: Defensin-5
notes: antimicrobial peptide
Effect on HIV infection: exacerbate HIV infection

B2: secretory leucocyte protease inhibitor (SLPI): natural antimicrobial peptide (protein, UniProt P03973 26-132, looked up)
Antileukoproteinase: SGKSFKAGVCPPKKSAQCLRYKKPECQSDWQCPGKKRCCPDTCGIKCLDPVDTPNPTRRKPGKCPVTYGQCLMLNPPNFCEMDGQCKRDLKCCMGMCGKSCVSPVKA
Anti-HIV activity: reported to have anti-HIV activity
